# Assay results as given in US20030032592A1 (published 2003).
# T1: zyxin, amino acids 323-572, Gal4 activation-domain fusion (prey clone) (yeast (Saccharomyces cerevisiae); human, UniProt P04386 768-881; Q15942 323-572)
# T1 construct: range 768-881;range 323-572; Clone from the human brain cDNA library in pACT2
# T1 sequence (looked up): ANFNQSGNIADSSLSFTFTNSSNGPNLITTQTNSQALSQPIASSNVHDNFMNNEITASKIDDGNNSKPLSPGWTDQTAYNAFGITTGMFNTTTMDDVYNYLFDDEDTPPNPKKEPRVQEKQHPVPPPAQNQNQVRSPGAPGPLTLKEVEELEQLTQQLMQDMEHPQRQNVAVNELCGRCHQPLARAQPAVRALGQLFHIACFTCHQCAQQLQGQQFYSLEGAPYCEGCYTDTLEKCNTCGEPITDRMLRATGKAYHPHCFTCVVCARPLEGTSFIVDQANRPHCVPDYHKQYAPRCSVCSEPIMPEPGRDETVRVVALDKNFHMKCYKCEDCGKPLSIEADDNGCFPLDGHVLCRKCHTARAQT
# B1: Oxysterol liver X receptor alpha (LXR-alpha), amino acids 95-156, Gal4 DNA-binding-domain fusion (bait) (receptor, UniProt P04386 1-147, looked up)
# chain: MKLLSSIEQACDICRLKKLKCSKEKPKCAKCLKNNWECRYSPKTKRSPLTRAHLTEVESRLERLEQLFLLIFPREDLDMILKMDSLQDIKALLTGLFVQDNVNKDAVTDRLASVETDMPLTLRQHRISATSSSEESSNKGQRQLTVSNELCSVCGDKASGFHYNVLSCEGCKGFFRRSVIKGAHYICHSGGHCPMDTYMRRKCQECRLR
# notes: range 1-147;range 95-156; Bait expressed in yeast from pGBTQ as a C-terminal fusion to Gal4 DBD
# B2: Oxysterol liver X receptor alpha (LXR-alpha), amino acids 95-277, Gal4 DNA-binding-domain fusion (bait) (receptor, UniProt P04386 1-147, looked up)
# chain: MKLLSSIEQACDICRLKKLKCSKEKPKCAKCLKNNWECRYSPKTKRSPLTRAHLTEVESRLERLEQLFLLIFPREDLDMILKMDSLQDIKALLTGLFVQDNVNKDAVTDRLASVETDMPLTLRQHRISATSSSEESSNKGQRQLTVSNELCSVCGDKASGFHYNVLSCEGCKGFFRRSVIKGAHYICHSGGHCPMDTYMRRKCQECRLRKCRQAGMREECVLSEEQIRLKKLKRQEEEQAHATSLPPRASSPPQILPQLSPEQLGMIEKLVAAQQQCNRRSFSDRLRVTPWPMAPDPHSREARQQRFAHFTELAIVSVQEIVDFAKQLPG
# notes: range 1-147;range 95-277; Bait made by PCR from brain cDNA and expressed in yeast from vector pGBTQ as a C-terminal fusion to Gal4 DBD
# B3: EIF3S1, amino acids 94-254, Gal4 activation-domain fusion (prey clone) (other, yeast (Saccharomyces cerevisiae);human, UniProt P04386 768-881, looked up, not shown: small tags and cut ends)
# chain: ANFNQSGNIADSSLSFTFTNSSNGPNLITTQTNSQALSQPIASSNVHDNFMNNEITASKIDDGNNSKPLSPGWTDQTAYNAFGITTGMFNTTTMDDVYNYLFDDEDTPPNPKKEEIKKRLEEPEEPKVLTPEEQLADKLRLKKLQEESDLELAKETFGVNNAVYGIDAMNPSSRDDFTEFGKLLKDKITQYEKSLYYASFLEVLVRDVCISLEIDDLKKITNSLTVLCSEKQKQEKQSKAKKKKKGVVPGGGLKATMKDDLADYGGYDGGYVQDY
# notes: range 768-881;range 94-254; Clone from the human brain cDNA library in pACT2; also called translation initiation factor EIF3S1
# B4: CIR, amino acids 226-450, Gal4 activation-domain fusion (prey clone) (other, yeast (Saccharomyces cerevisiae);human, UniProt P04386 768-881, looked up, not shown: small tags and cut ends)
# chain: ANFNQSGNIADSSLSFTFTNSSNGPNLITTQTNSQALSQPIASSNVHDNFMNNEITASKIDDGNNSKPLSPGWTDQTAYNAFGITTGMFNTTTMDDVYNYLFDDEDTPPNPKKERKLDRLEKKKKKKDRKKKKFQKSRSKHKKHKSSSSSSSSSSSSSSTETSESSSESESNNKEKKIQRKKRKKNKCSGHNNSDSEEKDKSKKRKLHEELSSSHHNREKAKEKPRFLKHESSREDSKWSHSDSDKKSRTHKHSPEKRGSERKEGSSRSHGREERSRRSRSRSPGSYKQRETRKRAQRNPGEEQSRRNDSRSHGTDLYRGEKMYREHPGGTHTKVTQRE
# notes: range 768-881;range 226-450; Clone from the human brain cDNA library in pACT2; also called transcription factor CIR
# B5: Homer-3, amino acids 182-354, Gal4 activation-domain fusion (prey clone) (other, yeast (Saccharomyces cerevisiae);human, UniProt P04386 768-881, looked up, not shown: small tags and cut ends)
# chain: ANFNQSGNIADSSLSFTFTNSSNGPNLITTQTNSQALSQPIASSNVHDNFMNNEITASKIDDGNNSKPLSPGWTDQTAYNAFGITTGMFNTTTMDDVYNYLFDDEDTPPNPKKEEVQWEAEFFALQDSNNKLAGALREANAAAAQWRQQLEAQRAEAERLRQRVAELEAQAASEVTPTGEKEGLGQGQSLEQLEALVQTKDQEIQTLKSQTGGPREALEAAEREETQQKVQDLETRNAELEHQLRAMERSLEEARAERERARAEVGRAAQLLDVSLFELSELREGLA
# notes: range 768-881;range 182-354; Clone from the human brain cDNA library in pACT2; The printed GenBank number has one digit too many
# Legend:
# [1] = biological target: T1, zyxin, amino acids 323-572, Gal4 …; experiment: yeast two-hybrid; prey clone identified for the bait of the same row (Ex. 4)
# Text: (§1) A total human brain (person) cDNA library cloned into the yeast expression vector pACT2 was purchased from Clontech (human brain […] cDNA, cat. # HL4004AH), transformed into the yeast strain J692 (genotype of this strain: Mat a, ade2, his3, leu2, trp1, URA3::GAL1-1acZ LYS2::GAL1-HIS3 ga14del ga180del cyhR2), and selected for the ability to drive leucine synthesis. In these yeast cells, each cDNA is expressed as a fusion protein with the transcription activation domain of the transcription factor Ga14 (amino acids 768 to 881) and a 9 amino acid hemagglutinin epitope tag. J693 cells (Mat α type) expressing the bait were then mated with J692 cells ([…]) expressing proteins from the brain library. The resulting diploid yeast cells expressing proteins interacting with the bait protein were selected for the ability to synthesize tryptophan, leucine, histidine, and β-galactosidase. DNA was prepared from each clone, transformed by electroporation into E. coli strain KC8 (Clontech KC8 electrocompetent cells, cat. # C2023-1), and the cells were selected on ampicillin-containing plates in the absence of either tryptophane (selection for the bait plasmid) or leucine (selection for the brain library plasmid). DNA for both plasmids was prepared and sequenced by di-deoxynucleotide chain termination method. […]
# [2] = biological target: T2, PSMD11, amino acids 87-422, Gal4 activation-domain fusion (prey clone) (yeast (Saccharomyces cerevisiae); human, UniProt P04386 768-881; O00231 87-422); experiment: yeast two-hybrid; prey clone identified for the bait of the same row (Ex. 10)
# T2 construct: range 768-881;range 87-422; Clone from the human brain cDNA library in pACT2; also called proteasome subunit PSMD11
# Text: as §1
# [3] = biological target: T3, Oxysterol liver X receptor alpha (LXR-alpha), amino acids 257-448, Gal4 DNA-binding-domain fusion (bait) (yeast (Saccharomyces cerevisiae), UniProt P04386 1-147; Q13133 257-447); experiment: yeast two-hybrid; prey clone identified for the bait of the same row (Ex. 8)
# T3 construct: range 1-147;range 257-448; Bait expressed in yeast from pGBTQ as a C-terminal fusion to Gal4 DBD
# Text: as §1
# [4] = biological target: T4, Oxysterol liver X receptor alpha (LXR-alpha), amino acids 156-448, Gal4 DNA-binding-domain fusion (bait) (yeast (Saccharomyces cerevisiae), UniProt P04386 1-147; Q13133 156-447); experiment: yeast two-hybrid; prey clone identified for the bait of the same row (Ex. 9)
# T4 construct: range 1-147;range 156-448; Bait expressed in yeast from pGBTQ as a C-terminal fusion to Gal4 DBD
# Text: as §1
# [5] = biological target: T4, Oxysterol liver X receptor alpha …; experiment: yeast two-hybrid; prey clone identified for the bait of the same row (Ex. 12)
# Text: as §1
# [6] = biological target: B2; experiment: yeast two-hybrid; prey clone identified for the bait of the same row (Ex. 6)
# Text: as §1
binder,measurement,setting,value
B1,binding result,[1],binds
B2,binding result,[2],binds
B3,binding result,[3],binds
same,binding result,[4],binds
B4,binding result,[5],binds
B5,binding result,[6],binds
